Measurements published in PMC7611158 (Molecular cancer therapeutics, 2019).
One block for each binder: values may come before it.

Assays:
[1] = target: hJAG1 DSL-EGF1-3 protein (Homo sapiens, UniProt P78504); test: SPR
[2] = target: human JAGGED2 (hJAG2), on transfected HEK293 cells (Homo sapiens, UniProt Q9Y219); test: flow cytometry on cells
[3] = target: human DLL4 (hDLL4), on transfected B16F10 cells (Homo sapiens, UniProt Q9NR61); test: flow cytometry on cells
[4] = target: murine Jagged1 (mJag1), on transfected B16F10 cells (mouse, UniProt Q9QXX0); test: flow cytometry on cells
[5] = target: JAG1 (target of the affinity printed for hJ1-65Dv9) (UniProt P78504)
Chain of JAG1 (target of the affinity printed for hJ1-65Dv9) (P78504 34-1218): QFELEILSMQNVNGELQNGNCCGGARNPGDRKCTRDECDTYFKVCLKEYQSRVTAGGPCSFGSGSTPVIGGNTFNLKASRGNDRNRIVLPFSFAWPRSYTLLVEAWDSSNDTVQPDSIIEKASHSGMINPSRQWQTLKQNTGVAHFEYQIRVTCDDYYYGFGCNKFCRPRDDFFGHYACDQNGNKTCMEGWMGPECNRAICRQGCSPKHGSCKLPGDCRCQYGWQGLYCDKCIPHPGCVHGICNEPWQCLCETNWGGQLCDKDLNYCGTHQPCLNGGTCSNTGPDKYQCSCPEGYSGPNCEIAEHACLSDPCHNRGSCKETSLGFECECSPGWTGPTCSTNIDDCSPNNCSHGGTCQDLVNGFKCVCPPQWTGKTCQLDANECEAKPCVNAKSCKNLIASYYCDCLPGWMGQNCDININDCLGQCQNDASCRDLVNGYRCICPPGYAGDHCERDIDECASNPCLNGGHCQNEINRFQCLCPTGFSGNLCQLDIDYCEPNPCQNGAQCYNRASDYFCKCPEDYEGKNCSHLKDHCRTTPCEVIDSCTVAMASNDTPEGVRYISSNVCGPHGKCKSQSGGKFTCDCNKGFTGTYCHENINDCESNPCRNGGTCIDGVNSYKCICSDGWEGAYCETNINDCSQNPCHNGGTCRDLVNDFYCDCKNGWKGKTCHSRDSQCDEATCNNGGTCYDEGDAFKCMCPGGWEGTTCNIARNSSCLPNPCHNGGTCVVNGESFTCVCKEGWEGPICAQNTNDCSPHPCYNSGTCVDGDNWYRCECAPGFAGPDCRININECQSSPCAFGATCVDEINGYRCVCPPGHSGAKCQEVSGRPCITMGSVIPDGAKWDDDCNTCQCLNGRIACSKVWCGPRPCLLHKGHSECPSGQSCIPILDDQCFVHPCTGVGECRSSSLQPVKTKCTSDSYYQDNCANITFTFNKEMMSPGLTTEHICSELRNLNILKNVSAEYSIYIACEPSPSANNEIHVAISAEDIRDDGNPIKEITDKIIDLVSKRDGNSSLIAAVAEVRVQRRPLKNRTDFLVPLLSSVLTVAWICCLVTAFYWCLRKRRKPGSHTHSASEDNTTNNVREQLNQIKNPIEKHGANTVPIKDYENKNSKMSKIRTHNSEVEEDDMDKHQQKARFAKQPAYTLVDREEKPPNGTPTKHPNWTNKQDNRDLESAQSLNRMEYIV

Chain of human DLL4 (hDLL4), on transfected B16F10 cells (Q9NR61 27-685, one chain of several): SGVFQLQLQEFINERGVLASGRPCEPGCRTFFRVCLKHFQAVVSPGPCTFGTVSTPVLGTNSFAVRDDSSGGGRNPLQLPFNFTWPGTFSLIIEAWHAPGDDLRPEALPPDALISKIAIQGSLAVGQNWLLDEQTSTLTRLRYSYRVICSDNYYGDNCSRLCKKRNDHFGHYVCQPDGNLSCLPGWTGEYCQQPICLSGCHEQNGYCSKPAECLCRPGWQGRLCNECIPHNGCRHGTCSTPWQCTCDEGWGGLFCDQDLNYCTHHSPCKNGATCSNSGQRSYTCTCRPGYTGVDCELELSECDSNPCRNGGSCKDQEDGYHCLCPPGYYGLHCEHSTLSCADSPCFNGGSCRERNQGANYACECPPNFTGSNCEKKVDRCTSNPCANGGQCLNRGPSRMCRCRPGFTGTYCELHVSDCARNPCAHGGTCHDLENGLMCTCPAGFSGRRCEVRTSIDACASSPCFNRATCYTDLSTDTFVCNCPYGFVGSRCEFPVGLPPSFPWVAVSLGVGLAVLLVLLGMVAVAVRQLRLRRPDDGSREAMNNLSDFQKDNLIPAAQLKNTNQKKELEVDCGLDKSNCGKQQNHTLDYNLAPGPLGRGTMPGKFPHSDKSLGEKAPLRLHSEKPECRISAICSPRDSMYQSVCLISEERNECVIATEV
Chain of murine Jagged1 (mJag1), on transfected B16F10 cells (Q9QXX0 34-1218, one chain of several): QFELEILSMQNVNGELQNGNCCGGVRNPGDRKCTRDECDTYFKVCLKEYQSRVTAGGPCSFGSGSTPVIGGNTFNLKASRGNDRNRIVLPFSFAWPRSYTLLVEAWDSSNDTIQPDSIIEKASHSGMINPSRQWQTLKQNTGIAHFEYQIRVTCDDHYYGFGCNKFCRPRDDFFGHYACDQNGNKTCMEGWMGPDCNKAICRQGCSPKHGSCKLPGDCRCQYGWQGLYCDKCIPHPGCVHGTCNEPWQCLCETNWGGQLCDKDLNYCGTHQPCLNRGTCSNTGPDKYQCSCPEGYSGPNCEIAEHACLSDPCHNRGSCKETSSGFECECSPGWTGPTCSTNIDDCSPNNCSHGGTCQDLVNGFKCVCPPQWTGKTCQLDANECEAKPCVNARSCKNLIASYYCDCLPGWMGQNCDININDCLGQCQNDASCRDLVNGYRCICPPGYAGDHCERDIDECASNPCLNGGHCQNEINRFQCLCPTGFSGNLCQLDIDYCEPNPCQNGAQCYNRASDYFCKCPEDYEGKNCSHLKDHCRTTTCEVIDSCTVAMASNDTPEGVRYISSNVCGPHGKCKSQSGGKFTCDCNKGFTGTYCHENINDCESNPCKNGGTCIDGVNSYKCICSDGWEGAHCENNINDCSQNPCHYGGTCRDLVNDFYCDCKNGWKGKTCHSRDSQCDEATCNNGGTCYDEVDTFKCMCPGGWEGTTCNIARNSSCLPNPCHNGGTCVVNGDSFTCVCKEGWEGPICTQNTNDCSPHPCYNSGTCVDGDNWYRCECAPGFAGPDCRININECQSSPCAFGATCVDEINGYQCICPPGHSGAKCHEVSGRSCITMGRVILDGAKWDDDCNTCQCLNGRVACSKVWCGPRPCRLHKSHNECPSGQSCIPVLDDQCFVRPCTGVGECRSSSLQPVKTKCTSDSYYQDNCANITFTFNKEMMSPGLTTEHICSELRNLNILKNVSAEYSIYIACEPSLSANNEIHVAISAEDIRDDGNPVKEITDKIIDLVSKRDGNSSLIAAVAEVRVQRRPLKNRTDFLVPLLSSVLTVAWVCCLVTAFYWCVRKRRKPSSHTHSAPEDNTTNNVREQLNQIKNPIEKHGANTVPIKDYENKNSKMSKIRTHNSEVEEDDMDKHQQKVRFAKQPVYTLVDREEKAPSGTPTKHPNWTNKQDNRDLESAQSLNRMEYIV
Chain of human JAGGED2 (hJAG2), on transfected HEK293 cells (Q9Y219 24-1238): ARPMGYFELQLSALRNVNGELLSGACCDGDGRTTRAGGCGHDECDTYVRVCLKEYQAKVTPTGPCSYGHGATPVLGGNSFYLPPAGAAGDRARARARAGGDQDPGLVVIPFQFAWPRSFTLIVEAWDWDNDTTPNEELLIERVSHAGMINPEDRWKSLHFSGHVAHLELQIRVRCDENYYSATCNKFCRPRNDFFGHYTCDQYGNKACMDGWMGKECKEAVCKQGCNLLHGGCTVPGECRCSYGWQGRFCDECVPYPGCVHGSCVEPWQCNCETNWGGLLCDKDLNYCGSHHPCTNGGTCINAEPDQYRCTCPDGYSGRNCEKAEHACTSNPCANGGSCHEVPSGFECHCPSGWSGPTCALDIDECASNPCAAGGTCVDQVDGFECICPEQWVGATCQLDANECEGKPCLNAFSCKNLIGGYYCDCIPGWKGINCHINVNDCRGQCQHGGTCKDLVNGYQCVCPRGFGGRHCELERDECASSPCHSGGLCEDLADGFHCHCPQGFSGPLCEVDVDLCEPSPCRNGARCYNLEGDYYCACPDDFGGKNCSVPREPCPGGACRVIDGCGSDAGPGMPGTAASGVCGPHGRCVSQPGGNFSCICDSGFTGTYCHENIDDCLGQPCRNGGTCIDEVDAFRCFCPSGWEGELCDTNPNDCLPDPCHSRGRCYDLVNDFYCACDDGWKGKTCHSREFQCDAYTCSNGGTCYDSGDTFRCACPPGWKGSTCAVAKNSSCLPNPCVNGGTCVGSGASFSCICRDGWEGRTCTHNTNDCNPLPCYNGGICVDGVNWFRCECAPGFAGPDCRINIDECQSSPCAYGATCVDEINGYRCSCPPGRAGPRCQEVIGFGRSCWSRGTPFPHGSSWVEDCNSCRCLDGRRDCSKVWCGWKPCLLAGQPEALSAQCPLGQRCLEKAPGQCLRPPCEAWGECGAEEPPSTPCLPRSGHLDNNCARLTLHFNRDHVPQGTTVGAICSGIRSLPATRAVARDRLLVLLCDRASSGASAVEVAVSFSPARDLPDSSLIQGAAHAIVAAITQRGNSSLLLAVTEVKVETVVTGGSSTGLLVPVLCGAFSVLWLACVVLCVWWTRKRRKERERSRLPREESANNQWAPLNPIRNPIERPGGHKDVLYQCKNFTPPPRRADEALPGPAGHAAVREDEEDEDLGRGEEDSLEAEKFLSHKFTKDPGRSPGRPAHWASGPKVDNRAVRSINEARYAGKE
Chain of hJAG1 DSL-EGF1-3 protein (P78504 185-335): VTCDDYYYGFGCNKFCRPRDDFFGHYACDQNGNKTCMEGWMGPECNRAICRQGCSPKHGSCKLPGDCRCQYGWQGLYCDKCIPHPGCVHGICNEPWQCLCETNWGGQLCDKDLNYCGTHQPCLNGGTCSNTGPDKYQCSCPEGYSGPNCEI

Kd [1]: 4.9 nM | binding result [2]: no binding | binding result [3]: no binding | binding result [4]: no binding
B1: J1-183D (antibody, V domains shown)
VH: QVQLQQPGTELVRPGVSVKISCKVSGYAFTDYAIHWIMQSHAKSLEWIGIINTYYGDSKYNQKFKDKATMTVDKSSNTAYMELARLTSEDSAIYYCARGYDGFAYWGQGTLVTVSS
VL: DIQLTQSPASLSASVGETVTFTCRTSENIYSYLTWYQQKQGKSPQLLVYNAKILAAGVPSRFSGYGSGTQFSLKINSLQPEDFGTYYCQHHYDIPWTFGGGTKLEIK

Kd [5]: 0.0139 nM
B2: hJ1-65Dv9 (antibody, V domains shown)
VH: QVQLVQSGAELKKPGSSVKVSCKASGYTFTDYEMHWVRQAPGQGLEWMGAIQPGGGGTAYNQKFKGRVTLTADKSTSTAYMELSSLRSEDTAVYYCTRRGYDDYPFAYWGQGTLVTVSS
VL: DIQMTQSPSSLSASVGDRVTITCRASGNIHNYLAWYQQKPGKAPKLLIYNAKTLADAVPSRFSGSGSGTDYTLTISSLQPEDFATYYCQHFWSAPWTFGQGTKLEIK

Kd [1]: 9.7 nM | binding result [2]: no binding | binding result [3]: no binding | binding result [4]: no binding
B3: J1-65D (antibody, V domains shown)
VH: QVQLQQPGAELVRPGASVKLSCKALGYTFTDYEMHWVKETPVHGLEWIGAIQPGGGGTAYNQKFKGKATLTADKSSSTAYMELSSLTSEDSAVYYCTRRGYDDYPFAYWGQGTLVTVSS
VL: DIQLTQSPASLSASVGETVTITCRASGNIHNYLAWYQQKQGKSPQLLVYNAKTLADDIPSRFSGSGSGTQYSLKINSLQPEDFGSYYCQHFWSAPWTFGGGTKLEIK
